Results on 7 molecules are retold here after publication PMC5095350, “Engineered AAA+ proteases reveal principles of proteolysis at the mitochondrial inner membrane” (Nature Communications, 2016).

The target of data set [1] is T1, hexYME1L (human) (UniProt Q96TA2).
T1 sequence: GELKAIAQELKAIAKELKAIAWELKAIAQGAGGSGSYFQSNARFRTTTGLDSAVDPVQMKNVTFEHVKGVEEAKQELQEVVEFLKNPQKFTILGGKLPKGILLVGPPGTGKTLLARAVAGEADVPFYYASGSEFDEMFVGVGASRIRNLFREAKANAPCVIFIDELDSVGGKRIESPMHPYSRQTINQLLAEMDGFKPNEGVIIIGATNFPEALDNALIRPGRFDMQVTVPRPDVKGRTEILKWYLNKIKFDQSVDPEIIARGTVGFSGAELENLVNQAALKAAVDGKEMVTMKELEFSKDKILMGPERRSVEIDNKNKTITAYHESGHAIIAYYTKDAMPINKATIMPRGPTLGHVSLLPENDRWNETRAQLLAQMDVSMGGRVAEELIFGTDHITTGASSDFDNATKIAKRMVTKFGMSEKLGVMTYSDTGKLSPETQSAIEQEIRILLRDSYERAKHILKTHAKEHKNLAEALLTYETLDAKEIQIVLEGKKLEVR

Data set [2] addresses T1, hexYME1L (human). This is another data set of the same source.
Data set [3] deals with the molecule itself. Briefly: SEC; analytical SEC, Superose 6 Increase 10/300 GL; 1 mg of protein in 200 μl; 50 mM Tris-HCl (pH 8.0), 100 mM NaCl, 0.5 mM TCEP; hexYME1L also with 5 mM EDTA or with ATPγS and MgCl2 (no change in migration). Background: Size exclusion chromatography separates by hydrodynamic size, large species first.
Substrate in the data set “purified protein”: Nc1ncnc2c1ncn2[C@@H]1O[C@H](COP(=O)(O)OP(=O)(O)OP(=O)(O)O)[C@@H](O)[C@H]1O
Description: purified protein. The conditions noted are these: Hill form of Michaelis-Menten equation, MgCl2 5 mM, pH 8.0, 37 °C, no protein substrate.

Data set [4] has as its target T1, hexYME1L (human). The source holds these as a separate data set.

As to “carboxymethylated I27 domain of human titin (domain or fragment)”, in the data set with hexYME1L (human) [1], the stimulation of the ATPase rate of hexYME1L (0.25 μM) by 20 μM substrate (not significant) came to 14%. On to cp7-^SFGFP-sul20C, for which the KM of ATP-dependent degradation by hexYME1L (1 μM), loss of GFP fluorescence, 37 °C in the data set with hexYME1L (human) [2] worked out at 15.2 µM.

For cp7-^SFGFP-ssrA, in the data set with hexYME1L (human) [2], the KM of ATP-dependent degradation by hexYME1L (1 μM), loss of GFP fluorescence, 37 °C is 12 µM. The molecule “I27 domain of human titin (domain or fragment)” registered a stimulation of the ATPase rate of hexYME1L (0.25 μM) by 20 μM substrate (not significant) with hexYME1L (human) [1] of 6%.

B1: hexYME1L (enzyme, human)
chain: GELKAIAQELKAIAKELKAIAWELKAIAQGAGGSGSYFQSNARFRTTTGLDSAVDPVQMKNVTFEHVKGVEEAKQELQEVVEFLKNPQKFTILGGKLPKGILLVGPPGTGKTLLARAVAGEADVPFYYASGSEFDEMFVGVGASRIRNLFREAKANAPCVIFIDELDSVGGKRIESPMHPYSRQTINQLLAEMDGFKPNEGVIIIGATNFPEALDNALIRPGRFDMQVTVPRPDVKGRTEILKWYLNKIKFDQSVDPEIIARGTVGFSGAELENLVNQAALKAAVDGKEMVTMKELEFSKDKILMGPERRSVEIDNKNKTITAYHESGHAIIAYYTKDAMPINKATIMPRGPTLGHVSLLPENDRWNETRAQLLAQMDVSMGGRVAEELIFGTDHITTGASSDFDNATKIAKRMVTKFGMSEKLGVMTYSDTGKLSPETQSAIEQEIRILLRDSYERAKHILKTHAKEHKNLAEALLTYETLDAKEIQIVLEGKKLEVR
notes: cc-hex, de novo designed peptide that forms a hexameric coiled coil; replaces the N-terminal domain and transmembrane span of YME1L; 10-residue linker between cc-hex and YME1L-AP; human YME1L isoform 1, AAA+ ATPase domain and M41 protease domain, residues 317-773; also called hexYME1L-AP; hexameric YME1L; source: E. coli BL21 (DE3), purified (glutathione agarose, TEV cleavage, Ni-NTA, SEC); not …
By stoichiometry N is commonly meant the number of molecules, sites or subunits per partner or assembly. Take B1: in data set [3], the “stoichiometry N” value was approximately 6.

B2: hexYME1L (Homo sapiens) (protein)
chain: RFRTTTGLDSAVDPVQMKNVTFEHVKGVEEAKQELQEVVEFLKNPQKFTILGGKLPKGILLVGPPGTGKTLLARAVAGEADVPFYYASGSEFDEMFVGVGASRIRNLFREAKANAPCVIFIDELDSVGGKRIESPMHPYSRQTINQLLAEMDGFKPNEGVIIIGATNFPEALDNALIRPGRFDMQVTVPRPDVKGRTEILKWYLNKIKFDQSVDPEIIARGTVGFSGAELENLVNQAALKAAVDGKEMVTMKELEFSKDKILMGPERRSVEIDNKNKTITAYHESGHAIIAYYTKDAMPINKATIMPRGPTLGHVSLLPENDRWNETRAQLLAQMDVSMGGRVAEELIFGTDHITTGASSDFDNATKIAKRMVTKFGMSEKLGVMTYSDTGKLSPETQSAIEQEIRILLRDSYERAKHILKTHAKEHKNLAEALLTYETLDAKEIQIVLEGKKLEVR
Take B2: in “purified protein”, the K0.5 stood at 1.4 mM.

B3: β-casein (natural protein)
chain: RELEELNVPGEIVESLSSSEESITRINKKIEKFQSEEQQQTEDELQDKIHPFAQTQSLVYPFPGPIPNSLPQNIPPLTQTPVVVPPFLQPEVMGVSKVKEAMAPKHKEMPFPKYPVEPFTESQSLTLTDVENLHLPLPLLQSWMHQPHQPLPPTVMFPPQSVLSLSQSKVLPVPQKAVPYPQRDMPIQAFLLYQEPVLGPVRGPFPIIV
Consider B3, for which, in the data set with hexYME1L (human) [4], the initial rate of ATP-dependent degradation of β-casein (20 μM) by hexYME1L (1 μM), SDS-PAGE (β-casein molecules min^−1 enz6^−1) was 0.49.
